According to publication PMC7733260, “Long non-coding RNA NEAT1 promotes bone metastasis of prostate cancer through N6-methyladenosine”:

T1: CYCLINL1 (cyclin L1) (UniProt Q9UK58 1-526)
T1 sequence: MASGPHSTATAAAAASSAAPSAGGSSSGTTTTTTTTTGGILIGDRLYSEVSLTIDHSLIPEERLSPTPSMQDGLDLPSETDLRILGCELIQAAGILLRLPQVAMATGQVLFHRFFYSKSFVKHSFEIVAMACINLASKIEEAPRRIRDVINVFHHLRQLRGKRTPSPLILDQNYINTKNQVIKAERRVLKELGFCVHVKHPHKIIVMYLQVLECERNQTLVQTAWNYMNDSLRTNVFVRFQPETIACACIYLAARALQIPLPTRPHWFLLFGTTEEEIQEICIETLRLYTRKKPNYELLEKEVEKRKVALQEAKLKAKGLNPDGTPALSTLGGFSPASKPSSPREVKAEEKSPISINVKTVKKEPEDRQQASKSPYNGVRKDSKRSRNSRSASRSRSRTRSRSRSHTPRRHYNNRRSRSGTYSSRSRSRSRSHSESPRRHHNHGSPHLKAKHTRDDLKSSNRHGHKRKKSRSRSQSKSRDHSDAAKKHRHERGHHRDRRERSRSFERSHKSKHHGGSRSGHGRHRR


Columns and labels:
CYCLINL1 (cyclin L1) = biological target: T1, CYCLINL1 (cyclin L1); experiment: EMSA; 10 mM Mg2+, tRNA, RNase T1; EMSA: 10 mM Tris-Cl pH 7.5, 25 mM KCl, 10 mM MgCl2, 1 mM DTT, 100 ng/ml tRNA, 25 C 30 min, then RNase T1 37 C 15 min. Pull-down: lysate in 50 mM Tris-HCl pH 7.5, 150 mM NaCl, 1% NP-40, 0.1% SDS, 4 C 12 h; wash 50 mM Tris pH 7.4, 150 mM NaCl, 0.05% NP-40, 1 mM MgCl2; settings: protein: ivt; tags: Myc; label: 3' biotin
CDK19 = CDK19 (UniProt Q9BWU1 1-502); experiment: as above; settings: protein: ivt; tags: Flag; label: 3' biotin
Chain of CDK19 (Q9BWU1 whole entry): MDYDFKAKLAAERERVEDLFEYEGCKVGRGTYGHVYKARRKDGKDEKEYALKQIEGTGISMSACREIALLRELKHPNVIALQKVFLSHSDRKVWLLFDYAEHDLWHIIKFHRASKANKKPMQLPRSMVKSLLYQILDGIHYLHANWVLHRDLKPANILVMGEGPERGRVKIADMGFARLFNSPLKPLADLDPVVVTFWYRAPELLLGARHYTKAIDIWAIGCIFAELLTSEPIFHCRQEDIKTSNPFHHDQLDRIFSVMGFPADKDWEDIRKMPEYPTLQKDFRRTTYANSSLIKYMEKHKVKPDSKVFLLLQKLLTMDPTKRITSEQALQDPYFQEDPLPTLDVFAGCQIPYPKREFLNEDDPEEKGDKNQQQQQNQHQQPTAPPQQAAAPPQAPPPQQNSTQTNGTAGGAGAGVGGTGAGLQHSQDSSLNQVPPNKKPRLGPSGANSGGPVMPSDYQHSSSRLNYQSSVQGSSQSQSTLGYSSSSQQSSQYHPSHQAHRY

Row | Binder | binding result (CYCLINL1 (cyclin L1)) | binding result (CDK19)
1 | Probe m6A in Fig3e (NEAT1-1 site #4) (ssRNA, m6A at site #4 (A3494); stoichiometry and installation not stated) RNA: UUAUUUUUAUCGUUGGGAUCUUUCUGUCUUCUGGGUUCCAUUUUUUAAAUGUUUAAAAAUAUGUUGACAUGGUAGUUCAGUUCUUAACCAAUGACUUGGGGAUGA | binds | –
2 | GCAGCCCCUUUUUUUCCAGACCAAGGGCUGUGA (ssRNA) [Probe WT in Fig3e (NEAT1-1 U-rich)] | – | binds
